In EP4477673A1, “IMMUNOCONJUGATE AND USE THEREOF” (priority 2022, dated 2023):
Where a chain is given by its changes, count along the chain named. In names and notes the source's numbering stands.

What was measured:
[1] = test system: unstimulated CD4^+ T cells; test: Unstimulated T cell proliferation experiment (Ki-67, FACS); type: cell-based, human; conditions: 4 days
Description: (§1) T cells stimulated with CD3 antibodies highly express PD-1. To determine whether the PD-1-IL-2v with different IL-2 mutants described above can activate T cells among human peripheral blood mononuclear cells (PBMCs) that lowly express PD-1 and highly express PD-1, T cells were isolated from PBMCs and stimulated with a CD3 antibody. The effects of the fusion proteins described above on the proliferation of unstimulated and stimulated T cells were assessed. Unstimulated T cell proliferation experiment: The isolated T cells were counted and then plated at 5 × 10^5 cells/mL onto a 96-well plate at 200 µL/well. The test samples were serially diluted with culture medium to prepare 5× working solutions, and 50 µL of each concentration of the test samples was added to the stimulated T cells and mixed well. The plate was incubated for 4 days. After the drug treatment, the cells were washed twice with FACS buffer, and dead cells were labeled with FVD780. After flow cytometry antibody staining, cell proliferation was examined by FACS.

[2] = test system: unstimulated CD8^+ T cells; test: as above; type: cell-based, human; conditions: 4 days
Description: as §1

[3] = test system: CD4^+ T cells stimulated with the CD3 antibody; test: Proliferation experiment of T cells stimulated with a CD3 antibody (Ki-67, FACS); type: cell-based, human; conditions: 4 days
Description: (§2) T cells stimulated with CD3 antibodies highly express PD-1. To determine whether the PD-1-IL-2v with different IL-2 mutants described above can activate T cells among human peripheral blood mononuclear cells (PBMCs) that lowly express PD-1 and highly express PD-1, T cells were isolated from PBMCs and stimulated with a CD3 antibody. The effects of the fusion proteins described above on the proliferation of unstimulated and stimulated T cells were assessed. Proliferation experiment of T cells stimulated with a CD3 antibody: After frozen human PBMCs were thawed, T cells were obtained by isolation using a Pan T Cell Isolation Kit (Miltenyi, 130-096-535). The CD3 antibody was diluted with PBS to 0.1 µg/mL and added to a 10 cm culture dish. The dish was coated at 37 °C for 2 h and washed with PBS for later use. The T cells were plated at 2 × 10^6 cells/mL onto the 10 cm culture dish precoated with the CD3 antibody and stimulated at 37 °C with 5% CO2 for 24 h. The stimulated T cells were collected, washed, and counted, and the cell density was adjusted to 5 × 10^5 cells/mL. The cells were plated at 200 µL/well onto a 96-well plate. The test samples were serially diluted with culture medium to prepare 5× working solutions, and 50 µL of each concentration of the test samples was added to the stimulated T cells and mixed well. The plate was incubated for 4 days. After the drug treatment, the cells were washed twice with FACS buffer (PBS + 2% FBS), and dead cells were labeled with Fixable Viability Dye (eBioscience, 65-0865-14). After flow cytometry antibody staining with CD3 (BD, 565491), CD4 (BD, 558116), CD8 (BD, 565310), Ki-67 (eBioscience, 12-5698-82)), cell proliferation was examined by FACS.

[4] = test system: CD8^+ T cells stimulated with the CD3 antibody; test: as above; type: cell-based, human; conditions: 4 days
Description: as §2

human PD-1 = human PD-1 (human, UniProt Q15116 25-288); test: cell-based or functional assay
Chain of human PD-1 (Q15116 25-288 limits assumed): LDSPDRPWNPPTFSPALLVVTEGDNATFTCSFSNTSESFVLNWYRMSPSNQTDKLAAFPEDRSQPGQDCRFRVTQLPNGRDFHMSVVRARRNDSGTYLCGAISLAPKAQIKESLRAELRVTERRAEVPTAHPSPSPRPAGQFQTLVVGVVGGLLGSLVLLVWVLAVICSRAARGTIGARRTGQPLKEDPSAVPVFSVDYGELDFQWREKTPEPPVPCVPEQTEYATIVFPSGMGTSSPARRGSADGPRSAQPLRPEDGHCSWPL

[5] = target: Human PD-1 antigen protein (Sino Biological, 10377-H08H) (human, UniProt Q15116 25-167); test: SPR Biacore 8K, fusion protein captured by anti-human IgG (Fc), human PD-1 as analyte
Chain of Human PD-1 antigen protein (Sino Biological, 10377-H08H) (Q15116 25-167 limits assumed): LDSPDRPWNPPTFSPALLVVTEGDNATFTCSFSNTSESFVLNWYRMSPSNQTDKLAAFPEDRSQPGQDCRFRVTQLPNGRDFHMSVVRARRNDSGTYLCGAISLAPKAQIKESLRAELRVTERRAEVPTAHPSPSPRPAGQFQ

B1: PEG-IL-2v (conjugate)
chain: APASSSTKKTQLQLEHLLLDLQMILQGISNYKNPKLTRMLTAKFYMPKKATELKHLQCLEEELKPLEEVLQGAQSKNFHLRPRDLISNINVIVLELKGSETTFMCEYADETATIVEFLNRWITFAQSIISTLT
B1 was tested. Which “CD4^+ Ki67^+ cells (%)” value ([1]; 0.001 nM) did it give?
The value was 0.29%.

What about the “CD4^+ Ki67^+ cells (%)” value ([1]; 0.01 nM) of the same molecule?
The value was 1.51%.

And the “CD4^+ Ki67^+ cells (%)” value ([1]; 0.1 nM)?
Its value is 1.38%.

What about the “CD4^+ Ki67^+ cells (%)” value ([1]; 1 nM) of the same molecule?
The value was 1.77%.

And the “CD4^+ Ki67^+ cells (%)” value ([1]; 10 nM)?
The value was 10.2%.

What about the “CD4^+ Ki67^+ cells (%)” value ([1]; 100 nM) of the same molecule?
Its value is 45%.

What about the “CD8^+ Ki67^+ cells (%)” value ([2]; 0.001 nM) of the same molecule?
Its value is 0.22%.

What about the “CD8^+ Ki67^+ cells (%)” value ([2]; 0.01 nM) of the same molecule?
The value was 0.59%.

And the “CD8^+ Ki67^+ cells (%)” value ([2]; 0.1 nM)?
Its value is 0.29%.

And the “CD8^+ Ki67^+ cells (%)” value ([2]; 1 nM)?
Its value is 1.54%.

What about the “CD8^+ Ki67^+ cells (%)” value ([2]; 10 nM) of the same molecule?
The value was 43%.

What about the “CD8^+ Ki67^+ cells (%)” value ([2]; 100 nM) of the same molecule?
Its value is 87.3%.

And the “CD4^+ Ki67^+ cells (%)” value ([3]; 0.001 nM)?
The value was 32.9%.

And the “CD4^+ Ki67^+ cells (%)” value ([3]; 0.01 nM)?
Its value is 34.8%.

And the “CD4^+ Ki67^+ cells (%)” value ([3]; 0.1 nM)?
Its value is 43.3%.

What about the “CD4^+ Ki67^+ cells (%)” value ([3]; 1 nM) of the same molecule?
Its value is 63%.

What about the “CD4^+ Ki67^+ cells (%)” value ([3]; 10 nM) of the same molecule?
The value was 73%.

And the “CD4^+ Ki67^+ cells (%)” value ([3]; 100 nM)?
Its value is 74.7%.

What about the “CD8^+ Ki67^+ cells (%)” value ([4]; 0.001 nM) of the same molecule?
The value was 55.5%.

What about the “CD8^+ Ki67^+ cells (%)” value ([4]; 0.01 nM) of the same molecule?
Its value is 55.5%.

What about the “CD8^+ Ki67^+ cells (%)” value ([4]; 0.1 nM) of the same molecule?
Its value is 67.1%.

What about the “CD8^+ Ki67^+ cells (%)” value ([4]; 1 nM) of the same molecule?
The value was 76.6%.

What about the “CD8^+ Ki67^+ cells (%)” value ([4]; 10 nM) of the same molecule?
Its value is 82%.

And the “CD8^+ Ki67^+ cells (%)” value ([4]; 100 nM)?
Its value is 82.5%.

B2: A-N88D-M08 (Fc fusion)
chain (part 1 of 2): EVQLVESGGGLVQPGGSLRLSCAASGLTFSDYSMSWYRQAPGKGRELVAIISGSGVITHYVDSVKGRFTISRDNAKNTLYLQMRSLRAEDTAVYYCRAVSDWQDYWGQGTQVTVSS
chain (part 2 of 2): GGGGSGGGGSGGGGSAPASSSTKKTQLQLEHLLLDLQMILQGISNYKNPKLTRMLTAKFYMPKKATELKHLQCLEEELKPLEEVLQGAQSKNFHLRPRDLISDINVIVLELKGSETTFMCEYADETATIVEFLNRWITFAQSIISTLT
chain: B2 chain (part 1 of 2)
notes: also called A-N88D-M8; not shown: IgG1 hinge (C220S) + Fc Knob chain as in A-N88D; IgG1 hinge (C220S) + Fc Hole chain as in A-N88D
What does the source list for B2?
M07e-hPD-1 cell proliferation ratio (%) at 0.0001 nM (human PD-1): 3.8%; M07e-hPD-1 cell proliferation ratio (%) at 0.001 nM (human PD-1): 4.5%; M07e-hPD-1 cell proliferation ratio (%) at 0.01 nM (human PD-1): 11.9%; M07e-hPD-1 cell proliferation ratio (%) at 0.1 nM (human PD-1): 27.3%; M07e-hPD-1 cell proliferation ratio (%) at 1 nM (human PD-1): 36%; M07e-hPD-1 cell proliferation ratio (%) at 10 nM (human PD-1): 35.5%; M07e-hPD-1 cell proliferation ratio (%) at 100 nM (human PD-1): 35.5%; M07e-hPD-1 cell proliferation ratio (%) at 1000 nM (human PD-1): 44.2%; Kd [5]: 12.3 nM; koff [5]: 0.00264 s⁻¹; kon [5]: 215000 M⁻¹ s⁻¹

B3: A-N88D-M26 (Fc fusion)
chain (part 1 of 2): B2 chain (part 1 of 2) with D31S, V56G, Q103E
chain (part 2 of 2): B2 chain (part 2 of 2)
chain: B2 chain (part 1 of 2) with D31S, V56G, Q103E
notes: not shown: IgG1 hinge (C220S) + Fc Knob chain as in A-N88D; IgG1 hinge (C220S) + Fc Hole chain as in A-N88D
For B3, which “M07e-hPD-1 cell proliferation ratio (%) at 0.0001 nM” value (human PD-1) is on record?
Its value is 3.7%.

What about the “M07e-hPD-1 cell proliferation ratio (%) at 0.001 nM” value (human PD-1) of the same molecule?
The value was 4.8%.

What about the “M07e-hPD-1 cell proliferation ratio (%) at 0.01 nM” value (human PD-1) of the same molecule?
The value was 9.3%.

What about the “M07e-hPD-1 cell proliferation ratio (%) at 0.1 nM” value (human PD-1) of the same molecule?
Its value is 10.7%.

And the “M07e-hPD-1 cell proliferation ratio (%) at 1 nM” value (human PD-1)?
The value was 23.2%.

What about the “M07e-hPD-1 cell proliferation ratio (%) at 10 nM” value (human PD-1) of the same molecule?
The value was 37%.

What about the “M07e-hPD-1 cell proliferation ratio (%) at 100 nM” value (human PD-1) of the same molecule?
The value was 43.1%.

And the “M07e-hPD-1 cell proliferation ratio (%) at 1000 nM” value (human PD-1)?
Its value is 54.4%.

And the Kd [5]?
The Kd was 53.1 nM.

What about the koff [5] of the same molecule?
Its koff is 0.00948 s⁻¹.

And the kon [5]?
The kon was 179000 M⁻¹ s⁻¹.

B4: A-N88D-M28 (Fc fusion)
chain (part 1 of 2): B2 chain (part 1 of 2) with D31S, V56G, V61A
chain (part 2 of 2): B2 chain (part 2 of 2)
chain: B2 chain (part 1 of 2) with D31S, V56G, V61A
notes: as for B3
How did the “M07e-hPD-1 cell proliferation ratio (%) at 0.0001 nM” value (human PD-1) turn out when B4 was run?
The value was 7.2%.

And the “M07e-hPD-1 cell proliferation ratio (%) at 0.001 nM” value (human PD-1)?
The value was 6.3%.

And the “M07e-hPD-1 cell proliferation ratio (%) at 0.01 nM” value (human PD-1)?
The value was 9.4%.

What about the “M07e-hPD-1 cell proliferation ratio (%) at 0.1 nM” value (human PD-1) of the same molecule?
The value was 7.6%.

And the “M07e-hPD-1 cell proliferation ratio (%) at 1 nM” value (human PD-1)?
Its value is 12.4%.

What about the “M07e-hPD-1 cell proliferation ratio (%) at 10 nM” value (human PD-1) of the same molecule?
The value was 19.1%.

What about the “M07e-hPD-1 cell proliferation ratio (%) at 100 nM” value (human PD-1) of the same molecule?
The value was 34.4%.

And the “M07e-hPD-1 cell proliferation ratio (%) at 1000 nM” value (human PD-1)?
Its value is 51.3%.

And the Kd [5]?
Its Kd is 134 nM.

What about the koff [5] of the same molecule?
Its koff is 0.0198 s⁻¹.

And the kon [5]?
The kon was 148000 M⁻¹ s⁻¹.

B5: A-N88D-M15 (Fc fusion)
chain (part 1 of 2): B2 chain (part 1 of 2) with V56G, Q103E
chain (part 2 of 2): B2 chain (part 2 of 2)
chain: B2 chain (part 1 of 2) with V56G, Q103E
notes: as for B3
B5 was tested. Which “M07e-hPD-1 cell proliferation ratio (%) at 0.0001 nM” value (human PD-1) did it give?
Its value is 8.9%.

What about the “M07e-hPD-1 cell proliferation ratio (%) at 0.001 nM” value (human PD-1) of the same molecule?
The value was 4.1%.

And the “M07e-hPD-1 cell proliferation ratio (%) at 0.01 nM” value (human PD-1)?
The value was 7%.

And the “M07e-hPD-1 cell proliferation ratio (%) at 0.1 nM” value (human PD-1)?
Its value is 17%.

And the “M07e-hPD-1 cell proliferation ratio (%) at 1 nM” value (human PD-1)?
Its value is 32.9%.

And the “M07e-hPD-1 cell proliferation ratio (%) at 10 nM” value (human PD-1)?
Its value is 41.6%.

What about the “M07e-hPD-1 cell proliferation ratio (%) at 100 nM” value (human PD-1) of the same molecule?
The value was 54.9%.

What about the “M07e-hPD-1 cell proliferation ratio (%) at 1000 nM” value (human PD-1) of the same molecule?
The value was 47.7%.

What about the Kd [5] of the same molecule?
Its Kd is 29.3 nM.

What about the koff [5] of the same molecule?
The koff was 0.00706 s⁻¹.

And the kon [5]?
Its kon is 241000 M⁻¹ s⁻¹.

B6: A-N88D-M27 (Fc fusion)
chain (part 1 of 2): B2 chain (part 1 of 2) with D31S, V56G
chain (part 2 of 2): B2 chain (part 2 of 2)
chain: B2 chain (part 1 of 2) with D31S, V56G
notes: as for B3
Which “M07e-hPD-1 cell proliferation ratio (%) at 0.0001 nM” value (human PD-1) does the source give for B6 here?
Its value is 7.5%.

What about the “M07e-hPD-1 cell proliferation ratio (%) at 0.001 nM” value (human PD-1) of the same molecule?
The value was 4.9%.

And the “M07e-hPD-1 cell proliferation ratio (%) at 0.01 nM” value (human PD-1)?
Its value is 4.9%.

What about the “M07e-hPD-1 cell proliferation ratio (%) at 0.1 nM” value (human PD-1) of the same molecule?
The value was 9.3%.

And the “M07e-hPD-1 cell proliferation ratio (%) at 1 nM” value (human PD-1)?
Its value is 21.1%.

And the “M07e-hPD-1 cell proliferation ratio (%) at 10 nM” value (human PD-1)?
The value was 31.9%.

What about the “M07e-hPD-1 cell proliferation ratio (%) at 100 nM” value (human PD-1) of the same molecule?
The value was 39.5%.

And the “M07e-hPD-1 cell proliferation ratio (%) at 1000 nM” value (human PD-1)?
The value was 60%.

And the Kd [5]?
The Kd was 74.3 nM.

And the koff [5]?
The koff was 0.0102 s⁻¹.

And the kon [5]?
The kon was 137000 M⁻¹ s⁻¹.
